Tests used:
[1] = Specific activity of purified β-glucosidase (G3ase), glucose release from cellotriose; type: biochemical, Acetobacter xylinum subsp. sucrofermentans BPR 2001; conditions: purified sample; 1 U = 1 μmol glucose from G3 at 30° C. for 2 hr
Description: Acetobacter xylinum subsp. sucrofermentans BPR 2001 strain was cultured in CSL-Fru medium using a jar fermenter (inner volume: 3 L, culture medium volume: 1.8 L) at 30° C. and pH5 for 68 hours. The resulting culture medium (about […] in total) was subjected to centrifugation to give its supernatant (3,600 ml). The resulting supernatant was subjected to salting-out with 60%-saturated ammonium sulfate, and the resulting precipitate was collected by centrifugation. The collected precipitate was solubilized into distilled water of 352 ml and dialyzed against distilled water (15 L). The resulting precipitate was collected and extracted three times with 20 mM sodium acetate buffer (pH5.5) containing 0.15 M NaCl. G3ase activity was found in the resulting extract. The extract was subjected to CM-Toyopearl 650M column (Tosoh Co. Ltd.; 3.2 cm in diameter, 13.3 cm in length) equilibrated with 20 mM sodium acetate buffer (pH5.5) containing 0.15 M NaCl to absorb the G3ase activity. […]
After reaction at 30° C. for 2 hr, a reaction solution (300 μl) of a glucose-measuring kit (Glucose CII test Wako: Wako Pure Chemical Industries, Ltd.) was added to the mixture, and reacted for 15 min at a room temperature, followed by the determination of an amount of glucose based on absorbance at 505 nm.

[2] = type: physicochemical, Acetobacter xylinum subsp. sucrofermentans BPR 2001
Description: The pH stability of β-glucosidase (G3ase) was studied. […] An optimum pH was about 5.5. The thermal stability of β-glucosidase (G3ase) was also studied.

[3] = Isoelectric point of β-glucosidase (G3ase) by IEF-PAGE; type: physicochemical, Acetobacter xylinum subsp. sucrofermentans BPR 2001
Description: The molecular weight of β-glucosidase (G3ase) determined by SDS-PAGE was about 81,200 (FIG. 2). Its isoelectric point (pI) determined by IEF-PAGE was about 6.0 (FIG. 3).

B1: β-glucosidase (G3ase): β-glucosidase purified from Acetobacter xylinum subsp. sucrofermentans BPR 2001, amino acid sequence SEQ ID NO:7 (protein, listed as Acetobacter xylinum)
chain: MRLSRKIFLLSAVACGMALAQAPAFARHAHDGGGDQADARARQVLASMSLEDKMSLLFSVDGGGFNGSVAPPGGLGSAAYLRAPQGSGLPDLQISDAGLGVRNPAHIRRNGEAVSLPSGQSTASTWDMDMARQAGVMIGREAWQSGFNILLGGGADLTRDPRGGRNFEYAGEDPLQTGRMVGSTIAGVQSQHVISTLKHYAMNDLETSRMTMSADIDPVAMRESDLLGFEIALETGHPGAVMCSYNRVNDLYACENPYLLNKTLKQDWHYPGFVMSDWGATHSSARAALAGLDQESAGDHTDARPYFRTLLAADVKAGRVPEARINDMAERVVRALFAAGLVDHPAQRGPLDVVTDTLVAQKDEEEGAVLLRNQGNILPLSPTARIAVIGGHADAGVISGGGSSQVDPIGGEAVKGPGKKEWPGDPVYFPSSPLKAMQAEAPGARITYDPGTSIASAVRAARAADVVVVYATQFTFEGMDAPSMHLDDNADALITAVAAANPRTVVVMETGDPVLMPWNSSVAGVLEAWFPGSGGGPAIARLLFGKVAPSGHLTMTFPQAESQLAHPDIAGVTADNVFEMQFHTDQELVYDEGSDVGYRWFDRNHFKPLYPFGYGLTYTTFSTDGLKVTERHGQVTATFNVHNTGTRAGVDVPQVYVGLPDGGARRLAGWQRISLAPGESRQVSVQLEPRLLAHFDGKHDRWSVPSGTFRVWLASCATDDSQQTTMHLHGRTMAP
modifications: n at positions 15741 and 15767 may be a, g, t, or c
For B1, the Specific activity [1] was 840 U/mg-portein, the “optimum pH” value [2] was “about 5.5” and the optimum temperature [2] was “about 40 °C”. For the same molecule, the “temperature at which inactivated” value ([2]; 30-minute treatment at pH 5.5) was ≥ 50 °C, the “temperature at which stable” value ([2]; 30-minute treatment at pH 5.5) was ≤ 30 °C and the “remaining activity (pH stability)” value ([2]; 3 h) was ≥ 80%. The “isoelectric point (pI)” value [3] was “about 6.0”.
